From paper PMC4653696

Columns and labels:
Test in all cases: FRET or BRET; 25 nM donor (AF555)-labelled octamers titrated with acceptor (AF647)-labelled octamers, serial dilutions from 100 nM; 45 mM KCl, 50 mM Tris-HCl pH 8.0; room temperature, 1 h equilibration; triplicate; PCA and curve fit; apparent Kd of end-to-end association of rods
[1] = molecular target: Shs1(E344C ΔCTE)-capped, otherwise Cys-less septin hetero-octamer (S. cerevisiae) (UniProt Q07657)
[2] = molecular target: Cdc11(E294C)-capped, otherwise Cys-less septin hetero-octamer (Cdc11-Cdc12-Cdc3-Cdc10-Cdc10-Cdc3-Cdc12-Cdc11) (S. cerevisiae) (UniProt P32458)
[3] = molecular target: Cdc11(E294C ΔCTE)-capped, otherwise Cys-less septin hetero-octamer (S. cerevisiae) (UniProt P32458)
[4] = molecular target: Shs1(E344C)-capped, otherwise Cys-less septin hetero-octamer (Shs1-Cdc12-Cdc3-Cdc10-Cdc10-Cdc3-Cdc12-Shs1) (S. cerevisiae) (UniProt Q07657)
Shs1(E344C)-capped, otherwise Cys-less septin hetero-octamer (Shs1-Cdc12-Cdc3-Cdc10-Cdc10-Cdc3-Cdc12-Shs1) (S. cerevisiae), sequence (Q07657 whole entry C29V/C148S/E344C, chain 1 of 4): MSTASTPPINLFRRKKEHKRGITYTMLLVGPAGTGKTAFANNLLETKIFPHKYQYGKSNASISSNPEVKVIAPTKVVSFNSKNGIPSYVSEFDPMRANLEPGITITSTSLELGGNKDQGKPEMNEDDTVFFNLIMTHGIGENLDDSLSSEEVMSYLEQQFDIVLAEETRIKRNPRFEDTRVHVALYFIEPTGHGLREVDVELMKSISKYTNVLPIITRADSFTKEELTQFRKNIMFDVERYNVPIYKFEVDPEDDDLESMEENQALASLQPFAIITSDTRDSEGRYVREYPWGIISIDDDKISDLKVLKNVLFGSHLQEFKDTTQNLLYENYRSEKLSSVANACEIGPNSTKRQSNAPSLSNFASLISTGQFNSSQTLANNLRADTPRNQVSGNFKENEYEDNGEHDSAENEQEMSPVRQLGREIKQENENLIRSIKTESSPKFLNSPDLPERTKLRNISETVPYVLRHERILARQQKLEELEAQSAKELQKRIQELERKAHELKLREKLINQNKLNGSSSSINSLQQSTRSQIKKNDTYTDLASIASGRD
Shs1(E344C)-capped, otherwise Cys-less septin hetero-octamer (Shs1-Cdc12-Cdc3-Cdc10-Cdc10-Cdc3-Cdc12-Shs1) (S. cerevisiae), sequence (P32468 whole entry C40A/C278S, chain 2 of 4, further chain): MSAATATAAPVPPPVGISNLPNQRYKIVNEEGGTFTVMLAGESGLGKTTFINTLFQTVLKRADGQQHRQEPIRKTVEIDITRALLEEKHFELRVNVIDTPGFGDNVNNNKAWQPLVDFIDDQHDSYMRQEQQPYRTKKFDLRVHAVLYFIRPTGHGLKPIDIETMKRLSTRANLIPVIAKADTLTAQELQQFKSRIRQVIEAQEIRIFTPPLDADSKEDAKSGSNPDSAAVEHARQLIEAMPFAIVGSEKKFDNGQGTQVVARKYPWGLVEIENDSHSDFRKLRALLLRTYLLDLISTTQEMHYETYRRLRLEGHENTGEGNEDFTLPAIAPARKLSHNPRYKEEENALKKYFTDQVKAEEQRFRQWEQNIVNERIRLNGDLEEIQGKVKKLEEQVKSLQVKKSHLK
Shs1(E344C)-capped, otherwise Cys-less septin hetero-octamer (Shs1-Cdc12-Cdc3-Cdc10-Cdc10-Cdc3-Cdc12-Shs1) (S. cerevisiae), sequence (P32457 other isoform, or with tags, fused parts or gaps E344C, chain 3 of 4, further chain): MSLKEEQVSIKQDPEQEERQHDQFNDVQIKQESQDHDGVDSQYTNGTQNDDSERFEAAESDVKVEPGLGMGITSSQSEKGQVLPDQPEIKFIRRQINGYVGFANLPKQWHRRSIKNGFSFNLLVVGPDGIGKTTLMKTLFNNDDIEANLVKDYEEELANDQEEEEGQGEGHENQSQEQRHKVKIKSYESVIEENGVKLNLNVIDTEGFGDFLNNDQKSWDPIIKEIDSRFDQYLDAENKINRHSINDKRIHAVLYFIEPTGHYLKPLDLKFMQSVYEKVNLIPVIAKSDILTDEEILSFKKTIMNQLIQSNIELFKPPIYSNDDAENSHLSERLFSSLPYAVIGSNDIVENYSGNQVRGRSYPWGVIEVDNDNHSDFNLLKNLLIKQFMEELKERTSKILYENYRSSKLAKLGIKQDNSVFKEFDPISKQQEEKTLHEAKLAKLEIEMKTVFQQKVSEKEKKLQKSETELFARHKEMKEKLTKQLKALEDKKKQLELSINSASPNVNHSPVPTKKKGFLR
Shs1(E344C)-capped, otherwise Cys-less septin hetero-octamer (Shs1-Cdc12-Cdc3-Cdc10-Cdc10-Cdc3-Cdc12-Shs1) (S. cerevisiae), sequence (P25342 whole entry C266S, chain 4 of 4, further chain): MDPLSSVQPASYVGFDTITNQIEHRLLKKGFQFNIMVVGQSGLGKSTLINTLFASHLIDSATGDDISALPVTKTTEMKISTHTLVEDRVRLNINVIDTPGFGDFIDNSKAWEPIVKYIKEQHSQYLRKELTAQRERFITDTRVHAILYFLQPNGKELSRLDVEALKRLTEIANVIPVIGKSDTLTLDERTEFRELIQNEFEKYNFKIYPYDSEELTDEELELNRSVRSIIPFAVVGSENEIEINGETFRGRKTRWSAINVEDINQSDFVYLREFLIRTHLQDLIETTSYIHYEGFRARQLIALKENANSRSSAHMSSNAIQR

Shs1(E344C ΔCTE)-capped, otherwise Cys-less septin hetero-octamer (S. cerevisiae), sequence (Q07657 1-348 C29V/C148S/E344C, chain 1 of 4): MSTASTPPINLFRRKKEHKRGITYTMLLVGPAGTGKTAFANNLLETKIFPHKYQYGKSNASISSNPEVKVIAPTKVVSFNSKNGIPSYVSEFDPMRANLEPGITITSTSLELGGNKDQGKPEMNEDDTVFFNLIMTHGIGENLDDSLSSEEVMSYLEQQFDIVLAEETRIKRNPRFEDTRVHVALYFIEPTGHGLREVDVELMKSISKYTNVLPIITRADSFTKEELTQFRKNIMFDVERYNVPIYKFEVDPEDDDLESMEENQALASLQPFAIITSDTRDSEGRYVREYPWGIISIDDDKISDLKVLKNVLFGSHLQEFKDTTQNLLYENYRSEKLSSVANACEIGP
Shs1(E344C ΔCTE)-capped, otherwise Cys-less septin hetero-octamer (S. cerevisiae), sequence (P32468 whole entry C40A/C278S, chain 2 of 4, further chain): as the sequence (P32468 whole entry C40A/C278S, chain 2 of 4, further chain) above
Shs1(E344C ΔCTE)-capped, otherwise Cys-less septin hetero-octamer (S. cerevisiae), sequence (P32457 other isoform, or with tags, fused parts or gaps E344C, chain 3 of 4, further chain): as the sequence (P32457 other isoform, or with tags, fused parts or gaps E344C, chain 3 of 4, further chain) above
Shs1(E344C ΔCTE)-capped, otherwise Cys-less septin hetero-octamer (S. cerevisiae), sequence (P25342 whole entry C266S, chain 4 of 4, further chain): as the sequence (P25342 whole entry C266S, chain 4 of 4, further chain) above
Cdc11(E294C)-capped, otherwise Cys-less septin hetero-octamer (Cdc11-Cdc12-Cdc3-Cdc10-Cdc10-Cdc3-Cdc12-Cdc11) (S. cerevisiae), sequence (P32458 whole entry C43F/C137A/C138A/E294C, chain 1 of 4): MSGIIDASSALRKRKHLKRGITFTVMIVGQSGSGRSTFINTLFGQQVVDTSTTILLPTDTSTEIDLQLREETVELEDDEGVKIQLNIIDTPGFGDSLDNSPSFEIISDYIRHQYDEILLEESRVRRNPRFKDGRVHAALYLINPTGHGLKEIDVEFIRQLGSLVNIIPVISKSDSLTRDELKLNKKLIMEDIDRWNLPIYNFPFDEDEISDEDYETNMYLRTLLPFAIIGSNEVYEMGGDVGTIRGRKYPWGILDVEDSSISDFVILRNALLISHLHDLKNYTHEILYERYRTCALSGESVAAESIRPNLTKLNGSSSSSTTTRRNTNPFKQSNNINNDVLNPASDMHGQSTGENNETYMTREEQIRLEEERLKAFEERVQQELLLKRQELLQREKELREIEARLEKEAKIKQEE
Cdc11(E294C)-capped, otherwise Cys-less septin hetero-octamer (Cdc11-Cdc12-Cdc3-Cdc10-Cdc10-Cdc3-Cdc12-Cdc11) (S. cerevisiae), sequence (P32468 whole entry C40A/C278S, chain 2 of 4, further chain): as the sequence (P32468 whole entry C40A/C278S, chain 2 of 4, further chain) above
Cdc11(E294C)-capped, otherwise Cys-less septin hetero-octamer (Cdc11-Cdc12-Cdc3-Cdc10-Cdc10-Cdc3-Cdc12-Cdc11) (S. cerevisiae), sequence (P32457 other isoform, or with tags, fused parts or gaps E294C, chain 3 of 4, further chain): as the sequence (P32457 other isoform, or with tags, fused parts or gaps E344C, chain 3 of 4, further chain) above
Cdc11(E294C)-capped, otherwise Cys-less septin hetero-octamer (Cdc11-Cdc12-Cdc3-Cdc10-Cdc10-Cdc3-Cdc12-Cdc11) (S. cerevisiae), sequence (P25342 whole entry C266S, chain 4 of 4, further chain): as the sequence (P25342 whole entry C266S, chain 4 of 4, further chain) above

Substance: Cdc11(E294C ΔCTE)-capped, otherwise Cys-less septin hetero-octamer (from UniProt P32458 1-305; P32468 1-407; P32457 1-520; P25342 1-322) (complex)
- Kd [1]: 22.8 nM
- Kd [2]: 24.1 nM
- Kd [3]: 17.7 nM
- Kd [4]: 22.2 nM
